Source: the DeepSol protein solubility set

Test: soluble on expression in E. coli; label from the status in PepcDB or PDB records

| Sequence | soluble on expression in E. coli |
| --- | --- |
| MIEFVYPHTQLVAGVDEVGRGPLVGAVVTAAVILDPARPIAGLNDSKKLSEKRRLALYEEIKEKALSWSLGRAEPHEIDELNILHATMLAMQRAVAGLHIAPEYVLIDGNRCPKLPMPAMAVVKGDSRVPEISAASILAKVTRDAEMAALDIVFPQYGFAQHKGYPTAFHLEKLAEHGATEHHRRSFGPVKRALGLAS | soluble |
| MIELHQKRLSAPKTYKIPRKVSKWVVKPSPGPHNKEAIPLLVLVRDFLELADTGREARRIISAGEILVDGVVRKDYKFPVGLFDVVTIPKLEKSYRILFDEKGRYIPKEVEDADLKLYKITNKTLVRGGKVQLNLFDGTNILGSNDYKTKDSILLRIPEKEVVDHLKFEEGALVMITGGTHAGEIGRIKSYKIVRSSAPNLVTVEGEERDITTIEDYVFVVGKKDSDKPVIDLGVLEHHHHHH | soluble |
| MIERRKIAVIGSGQIGGNIAYIVGKDNLADVVLFDIAEGIPQGKALDITHSMVMFGSTSKVIGTNDYADISGSDVVIITASIPGRPKDDRSELLFGNARILDSVAEGVKKYCPNAFVICITNPLDVMVSHFQKVSGLPHNKVCGMAGVLDSSRFRTFIAQHFGVNASDVSANVIGGHGDGMVPATSSVSVGGVPLSSFIKQGLITQEQIDEIVCHTRIAWKEVADNLKTGTAYFAPAAAAVKMAEAYLKDKKAVVPCSAFCSNHYGVKGIYMGVPTIIGKNGVEDILELDLTPLEQKLLGESINEVNTISKVLDNAPAAGA | soluble |
| MIESERKQIIDLIKKEVIPAIGCTEPIAVALCVAKAAETLGMKPEKIEVLLSANILKNAMGVGIPGTDMVGLPIAVALGALIGRSEYQLEVLRDCTPEAVEQGKLFIAEKRICISLKEDITEKLYIEVICTAGSQKATAVIAGGHTTFVYIATDEKVLLDKQQTANEEEEDASLELNLRKVYDFALTSPLDEIRFILDTARLNKAAAEQAFKGNYGHSLGKMLRGTYEHKVMGDSVFSHILSYTSAACDARMAGAMIPVMSNSGSGNQGISATLPVVVFAEENGKTEEELIRALMLSHLTVIYIKQSLGRLSALCGCVVAATGSSCGITWLMGGNYNQVAFAVQNMIANLTGMICDGAKPSCALKVTTGVSTAVLSAMMAMEDRCVTSVEGIIDEDVDQSIRNLTRIGSQAMNETDKMVLDIMTHKGGC | not soluble |
| MIESNHVVLWNRCLEVIKDNVPETTYNTWFAPIVPLKYEDKTLIVQIPSQFFYEILEEKFVDLLRKTLYKAIGEGTKLMYNVMVDKTSIPNQTVNLEASNRSTAVTPKSIVGGNKAPSFLKAPAVQDLDPHLNPNYNFENFIEGYSNKLSRSVAEAVAQNPAGTAFNPLFLYGASGVGKTHLANAIGTKIKELYADKRVLYVSAHLFQVQYTDSVRNNTTNDFINFYQTIDVLIIDDIQEFAGVTKTQNTFFHIFNHLHQNGKQLILTSDRAPVLLQGMEERLLTRFKWGMVAELEKPTVELRKNILRNKIHRDGLQFPPEVIDYIAENVNESVRDLEGIVIAIMARSTIFNKEIDLDLAQHIVHGVVHNETKAVTIDDILKVVCKHFDLEASAIHTKSRKREVVQARQIAMYLAKNYTDFSTSKIGKFIGNKDHATVLHACKTVKGQLEVDKSFQAEVQEIESLLKKKALEHHHHHH | soluble |
| MIETPYYLIDKAKLTRNMERIAHVREKSGAKALLALKCFATWSVFDLMRDYMDGTTSSSLFEVRLGRERFGKETHAYSVAYGDNEIDEVVSHADKIIFNSISQLERFADKAAGIARGLRLNPQVSSSSFDLADPARPFSRLGEWDVPKVERVMDRINGFMIHNNCENKDFGLFDRMLGEIEERFGALIARVDWVSLGGGIHFTGDDYPVDAFSARLRAFSDRYGVQIYLEPGEASITKSTTLEVTVLDTLYNGKNLAIVDSSIEAHMLDLLIYRETAKVLPNEGSHSYMICGKSCLAGDVFGEFRFAEELKVGDRISFQDAAGYTMVKKNWFNGVKMPAIAIRELDGSVRTVREFTYADYEQSLS | soluble |
| MIEVAEIIAREIRRGKIVEIGVGFYLEVAKRLRESGIDILVVDINEKAINYARKQGIKGVVDDIFNPTLGIYKDAKAIYSIRPAPEMMKPLLDLARKLKIPLYIVPLTGDRTPNGMKLINYKGIPIYKWEP | soluble |
| MIFEQGIEIKASATVVEQCFTDLDLMHLWLNPALRCEPIGQWSTAIGGRSRFTIQIPLLKPSLKSVVVERSPGLVVWQFKGFFQGQDRWECRPLEEGTYLLNRFEFTVPNPVVQWGFQMFAARWTSADMQAQLRRLKQVAEREYINSLEHHHHHH | not soluble |
| MIFRKFLNFLKPYKMRTDPIIFVIGCTGTGKSDLGVAIAKKYGGEVISVDSMQFYKGLDIATNKITEEESEGIQHHMMSFLNPSESSSYNVHSFREVTLDLIKKIRARSKIPVIVGGTTYYAESVLYENNLIETNTSDDVDSKSRTSSESSSEDTEEGISNQELWDELKKIDEKSALLLHPNNRYRVQRALQIFRETGIRKSELVEKQKSDETVDLGGRLRFDNSLVIFMDATPEVLEERLDGRVDKMIKLGLKNELIEFYNEHAEYINHSKYGVMQCIGLKEFVPWLNLDPSERDTLNGDKLFKQGCDDVKLHTRQYARRQRRWYRSRLLKRSDGDRKMASTKMLDTSDKYRIISDGMDIVDQWMNGIDLFEDISTDTNPILKGSDANILLNCEICNISMTGKDNWQKHIDGKKHKHHAKQKKLAETRT | not soluble |
| MIFRRSRPGTIGAVTLLCASLLAMPASSACTRFVYHGANDEVITARSMDWKVDVGTNLWAFPRGMQRSGQAGPNSIQWTSKHGSVIASGYDISTTDGMNEAGLVANVLWLAESSYPEYDGKTPGLTLAAWAQYVLDNFASVREAVDTLASEPFTVVTDNVPGEQRPATLHLSLSDASGDSAIIEYIDGKQVIHHNRAYQVMTNSPTFDKQLALNEYWKQIGGTVMLPGTNRASDRYARAYFYVNAIPKSEDPVEAIASVFSVIRNVSVPYGITTPDQPNISSTRWRTVADHKRKRYFFESALTPNIFWIDLGALDFSAESGKVMKLDLGPDQAHIYSGQANAHFEQAAPFKFLGL | not soluble |
| MIGSGSQRKIGIVIKALLDQAEELDIINKNKIRCTDIPRQGKAERRYLTIRGIDRLLAAAIPMNEVALMRNVLLFTGLRPREAKGLKVKDLDPMRGRLSIRRDVDDLGNPDETKTRNHRGVPIGGDLLFDLDDQAEGKQPHDWLLTDETGHV | not soluble |
| MIHRIKDEFVNVYIIDRGDHLVLIDTGIESTCEKILKKIEELGKPLKTVIITHYHLDHTGSLKCVKDGTGAKVVAHEEEVKAIEEKTGVRVDVPVKDGDVVEGLKVFHMPGHTRGSICLLDEESGALFVGDLMVERDGKLYEVPQQYSEDPMMNRERIKELLNIEFKAIYPAHGEPVLENAKEKVKELVESFSKGETN | soluble |
| MIIDGHTHVILPVEKHIKIMDEAGVDKTILFSTSIHPETAVNLRDVKKEMKKLNDVVNGKTNSMIDVRRNSIKELTNVIQAYPSRYVGFGNVPVGLSENDTNSYIEENIVNNKLVGIGELTPASGQIKSLKPIFKYSMDSGSLPIWIHAFNPLVLQDIKEIAELCKAFPKVPVILGHMGGSNWMTAVELAKEIQNLYLDTSAYFSTFVLKIVINELPLKCIFGTDMPFGDLQLSIEAIKKMSNDSYVANAVLGDNISRLLNIMAGDPLEHHHHHH | not soluble |
| MIIPALDLIDGTVVRLHQGDYGKQRDYGNDPLPRLQDYAAQGAEVLHLVDLTGAKDPAKRQIPLIKTLVAGVNVPVQVGGGVRSEEDVAALLEAGVARVVVGSTAVKSQDMVKGWFERFGADALVLALDVRIDEQGNKQVAVSGWQENSGVSLEQLVETYLPVGLKHVLCTDISRDGTLAGSNVSLYEEVCARYPQVAFQSSGGIGDIDDVAALRGTGVRGVIVGRALLEGKFTVKEAIACWQNA | soluble |
| MIIRDENYFTDKYELTRTHSEVLEAVKVVKPGKTLDLGCGNGRNSLYLAANGYDVDAWDKNAMSIANVERIKSIENLDNLHTRVVDLNNLTFDRQYDFILSTVVLMFLEAKTIPGLIANMQRCTKPGGYNLIVAAMDTADYPCTVGFPFAFKEGELRRYYEGWERVKYNEDVGELHRTDANGNRIKLRFATMLARKKLEHHHHHH | not soluble |
| MIITTTNGIEGKRVVEYKGIVCGEVISGVDFIKDFAAGLTNFFGGRSKSYEGELIEAREGAIREMKERAIQMGANAIIGVDIDYEVLGQGGNMLMVTASGTAVVIE | soluble |
